Laboratory results taken from US20260098095A1 (Hoffmann-La Roche, published 2026).

Key:
Experiment in all cases: cell-based or functional assay
[1] = target: H8A (human)
[2] = target: T1, HLA-A2/MAGE-A4 peptide MHC (pMHC) complex on cells (human)
[3] = target: T9A (human)
[4] = target: D4A (human)
[5] = target: R6A (human)
[6] = target: Y3A (human)
[7] = target: V10A (human)
[8] = target: V2A (human)
[9] = target: G1A (human)
[10] = target: G5A (human)
[11] = target: E7A (human)
[12] = target: ARF3 (human)
[13] = target: GAPDHS (human)
[14] = target: UBE2V2 (human)
[15] = target: PIGG (human)
[16] = target: DPYSL3 (human)
[17] = target: URB1 (human)
[18] = target: DPYSL4 (human)
[19] = target: VPS13D (human)
[20] = target: MAGEB2 (human)
[21] = target: CRMP1 (human)
[22] = target: HLA-A2 with peptide MAGA10 on T2 cells (human)
[23] = target: CCS (human)
[24] = target: gutQ (human)
[25] = target: BNRF1 (human)
[26] = target: DYNC1H1 (human)
[27] = target: EDC3 (human)
[28] = target: MTOR (human)
[29] = target: UNC80 (human)
[30] = target: FBXO34 (human)
[31] = target: ARF1 (human)
[32] = target: PKP1 (human)
[33] = target: SLC45A1 (human)
[34] = target: KDM1A (human)
[35] = target: KEAP1 (human)
[36] = target: pfkA (human)
[37] = target: HLA-A2 with peptide MAGB6 on T2 cells (human)
[38] = target: T1, HLA-A2/MAGE-A4 peptide MHC (pMHC) …; remark: listed apart in the source
[39] = target: T1, HLA-A2/MAGE-A4 peptide MHC (pMHC) …; remark: listed apart in the source
[40] = target: T1, HLA-A2/MAGE-A4 peptide MHC (pMHC) …; remark: listed apart in the source

B1: Molecule B (bispecific antibody, V domains shown)
VH 1: YPQLVESGGGLVKPGGSLRLSCAARYPFTRLDMSWVRQAPGKGLEWVGSISPKGGSTYYNDNVLGRFTISRDNSKNTLYLQMNSLRAEDTAVYYCARDWGFFDNWGQGTLVTVSS
VL 1: AIQMTQSPSSLSASVGDRVTITCRASQSISNYLAWYQQKPGKAPKLLIYNASHPEYDVPSRFSGSGSGTDFTLTISSLQPEDFATYYCQQYSSHPYTFGQGTKLEIK
VH 2: not shown
VL 2: QAVVTQEPSLTVSPGGTVTLTCGSSTGAVTTSNYANWVQEKPGQAFRGLIGGTNKRAPGTPARFSGSLLGGKAALTLSGAQPEDEAEYYCALWYSNLWVFGGGTKLTVL
Q: What does the source list for B1?
A: EC50, Jurkat-NFAT activation [1]: 0.717 nM; EC50, Jurkat-NFAT activation [2]: 0.189 nM; EC50, Jurkat-NFAT activation [3]: 0.426 nM; EC50, Jurkat-NFAT activation [4]: 191 nM; EC50, Jurkat-NFAT activation [5]: 45.5 nM; EC50, Jurkat-NFAT activation [6]: 27.9 nM; EC50, Jurkat-NFAT activation [7]: 1.01 nM; EC50, Jurkat-NFAT activation [8]: 0.258 nM; EC50, Jurkat-NFAT activation [9]: 141 nM; EC50, Jurkat-NFAT activation [10]: 0.181 nM; EC50, Jurkat-NFAT activation [11]: 3.48 nM; % of MAGE-A4 signal, Jurkat-NFAT [12]: 1.59%; % of MAGE-A4 signal, Jurkat-NFAT [13]: 1.37%; % of MAGE-A4 signal, Jurkat-NFAT [14]: 1.37%; % of MAGE-A4 signal, Jurkat-NFAT [15]: 1.46%; % of MAGE-A4 signal, Jurkat-NFAT; grey (>2%) [16]: 112%; % of MAGE-A4 signal, Jurkat-NFAT; grey (>2%) [17]: 67.9%; % of MAGE-A4 signal, Jurkat-NFAT; grey (>2%) [18]: 53.1%; % of MAGE-A4 signal, Jurkat-NFAT [19]: 1.8%; % of MAGE-A4 signal, Jurkat-NFAT [20]: 1.58%; % of MAGE-A4 signal, Jurkat-NFAT; grey (>2%) [21]: 67.5%; % of MAGE-A4 signal, Jurkat-NFAT; grey (>2%) [22]: 10.6%; % of MAGE-A4 signal, Jurkat-NFAT; grey (>2%) [23]: 10.8%; % of MAGE-A4 signal, Jurkat-NFAT [24]: 1.11%; % of MAGE-A4 signal, Jurkat-NFAT [25]: 1.05%; % of MAGE-A4 signal, Jurkat-NFAT [26]: 0.85%; % of MAGE-A4 signal, Jurkat-NFAT [27]: 0.63%; % of MAGE-A4 signal, Jurkat-NFAT [28]: 0.59%; % of MAGE-A4 signal, Jurkat-NFAT [29]: 0.98%; % of MAGE-A4 signal, Jurkat-NFAT [30]: 0.91%; % of MAGE-A4 signal, Jurkat-NFAT [31]: 1.14%; % of MAGE-A4 signal, Jurkat-NFAT [32]: 0.94%; % of MAGE-A4 signal, Jurkat-NFAT [33]: 1.22%; % of MAGE-A4 signal, Jurkat-NFAT [34]: 1.04%; % of MAGE-A4 signal, Jurkat-NFAT [35]: 1.07%; % of MAGE-A4 signal, Jurkat-NFAT [36]: 1.1%; % of MAGE-A4 signal, Jurkat-NFAT; grey (>2%) [37]: 57.9%; EC50 [pM], T-cell mediated lysis of IM-9 cells, 24 h [38]: 1080 pM; EC50 [pM], T-cell mediated lysis of NCI-H1755 cells, 24 h [38]: 168 pM; EC50 [pM], activation of Jurkat-NFAT reporter cells (luminescence, 6 h) with MAGE-A4 peptide pulsed T2 cells [39]: ~8310 pM; EC50 [pM] 24 h, T-cell mediated lysis of MAGE-A4 peptide pulsed T2 cells [40]: 72.8 pM
